Measured values: the supplement of paper PMC9112550, “Optimization of the antimicrobial peptide Bac7 by deep mutational scanning” (BMC Biology, 2022)

Test system: Escherichia coli TOP10
Experiment: shrunken log2 fold change of peptide-encoding DNA abundance (4.5 h post-induction vs induction); higher = less antimicrobial activity (less host growth inhibition)
Settings: time post-induction: 4.5 h; library: site-saturation at positions 5, 18, 19, 20
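Also: peptides expressed intracellularly from a pBAD plasmid library in pooled LB shake-flask culture, induced with 0.3% L-arabinose, DNA abundance read by NGS, three biological replicates, DESeq2 with apeglm shrinkage.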

| Sequence | shrunken log2 fold change |
| --- | --- |
| RRIRMRPPRLPRPRPRPDYHPRP | -0.457 |
| RRIRGRPPRLPRPRPRPPVNPRP | 0.55 |
| RRIRERPPRLPRPRPRPNFQPRP | 0.0442 |
| RRIRCRPPRLPRPRPRPPIFPRP | -0.197 |
| RRIRVRPPRLPRPRPRPRPLPRP | 0.378 |
| RRIRHRPPRLPRPRPRPINMPRP | -0.244 |
| RRIRERPPRLPRPRPRPIFRPRP | -0.00741 |
| RRIRARPPRLPRPRPRPDKWPRP | -0.0676 |
| RRIRVRPPRLPRPRPRPGYDPRP | -0.422 |
| RRIRRRPPRLPRPRPRPASMPRP | 0.0911 |
| RRIRSRPPRLPRPRPRPKNCPRP | -0.149 |
| RRIRQRPPRLPRPRPRPWIFPRP | -0.0561 |
| RRIRRRPPRLPRPRPRPLHIPRP | 0.212 |
| RRIRQRPPRLPRPRPRPQCPPRP | -0.229 |
| RRIRARPPRLPRPRPRPRVRPRP | 0.567 |
| RRIRVRPPRLPRPRPRPQSFPRP | -0.111 |
| RRIRTRPPRLPRPRPRPQSAPRP | -0.0745 |
| RRIRLRPPRLPRPRPRPCINPRP | -0.209 |
| RRIRLRPPRLPRPRPRPYNSPRP | -0.514 |
| RRIRIRPPRLPRPRPRPKIPPRP | -0.212 |
| RRIRTRPPRLPRPRPRPKQYPRP | -0.379 |
| RRIRDRPPRLPRPRPRPANRPRP | -0.0377 |
| RRIRDRPPRLPRPRPRPASRPRP | 0.17 |
| RRIRYRPPRLPRPRPRPCDWPRP | -0.0122 |
| RRIRGRPPRLPRPRPRPDDDPRP | 0.0442 |

| Sequence | shrunken log2 fold change |
| --- | --- |
| RRIRVRPPRLPRPRPRPTICPRP | -0.604 |
| RRIRPRPPRLPRPRPRPVSDPRP | -0.0922 |
| RRIRGRPPRLPRPRPRPNVNPRP | 0.371 |
| RRIRRRPPRLPRPRPRPQDVPRP | -0.108 |
| RRIRCRPPRLPRPRPRPQQPPRP | 0.345 |
| RRIRQRPPRLPRPRPRPHWYPRP | -0.0983 |
| RRIRNRPPRLPRPRPRPESWPRP | 0.362 |
| RRIRCRPPRLPRPRPRPLSQPRP | 0.0133 |
| RRIRTRPPRLPRPRPRPSRQPRP | 0.15 |
| RRIRSRPPRLPRPRPRPFRIPRP | 0.0361 |
| RRIRDRPPRLPRPRPRPWYHPRP | -0.0258 |
| RRIRRRPPRLPRPRPRPNNYPRP | -0.378 |
| RRIRIRPPRLPRPRPRPFNTPRP | -0.191 |
| RRIRVRPPRLPRPRPRPPKIPRP | -0.05 |
| RRIRHRPPRLPRPRPRPFMPPRP | -0.146 |
| RRIRERPPRLPRPRPRPGTCPRP | 0.0777 |
| RRIRKRPPRLPRPRPRPEVGPRP | 1.29 |
| RRIRGRPPRLPRPRPRPYQHPRP | -0.376 |
| RRIRDRPPRLPRPRPRPMQKPRP | 0.0229 |
| RRIRNRPPRLPRPRPRPQMRPRP | 0.308 |
| RRIRLRPPRLPRPRPRPYRRPRP | 0.0203 |
| RRIRIRPPRLPRPRPRPRWNPRP | -0.249 |
| RRIRNRPPRLPRPRPRPFKIPRP | -0.0688 |
| RRIRCRPPRLPRPRPRPWYQPRP | -0.272 |
| RRIRSRPPRLPRPRPRPGWQPRP | -0.339 |

| Sequence | shrunken log2 fold change |
| --- | --- |
| RRIRVRPPRLPRPRPRPERTPRP | -0.111 |
| RRIRYRPPRLPRPRPRPWGRPRP | -0.186 |
| RRIRSRPPRLPRPRPRPFIAPRP | -0.275 |
| RRIRSRPPRLPRPRPRPWDHPRP | -0.143 |
| RRIRIRPPRLPRPRPRPELVPRP | -0.105 |
| RRIRHRPPRLPRPRPRPCHKPRP | -0.0933 |
| RRIRDRPPRLPRPRPRPTLLPRP | 0.758 |
| RRIRQRPPRLPRPRPRPGWMPRP | -0.115 |
| RRIRWRPPRLPRPRPRPKAEPRP | -0.015 |
| RRIRPRPPRLPRPRPRPYNQPRP | -0.429 |
| RRIRGRPPRLPRPRPRPMRVPRP | 1.65 |
| RRIRSRPPRLPRPRPRPNVHPRP | -0.312 |
| RRIRHRPPRLPRPRPRPMINPRP | -0.305 |
| RRIRHRPPRLPRPRPRPSEWPRP | -0.0167 |
| RRIRFRPPRLPRPRPRPQMTPRP | -0.169 |
| RRIRTRPPRLPRPRPRPMYMPRP | -0.0921 |
| RRIRVRPPRLPRPRPRPHQNPRP | -0.296 |
| RRIRHRPPRLPRPRPRPWMSPRP | -0.0135 |
| RRIRYRPPRLPRPRPRPGAEPRP | 0.227 |
| RRIRKRPPRLPRPRPRPSQNPRP | 0.269 |
| RRIRKRPPRLPRPRPRPTNPPRP | 0.155 |
| RRIRSRPPRLPRPRPRPLMWPRP | 0.169 |
| RRIRYRPPRLPRPRPRPCCSPRP | -0.141 |
| RRIRARPPRLPRPRPRPQFKPRP | -0.0331 |
| RRIRLRPPRLPRPRPRPGRSPRP | 0.326 |

| Sequence | shrunken log2 fold change |
| --- | --- |
| RRIRRRPPRLPRPRPRPGIDPRP | -0.0704 |
| RRIRYRPPRLPRPRPRPGNHPRP | -0.064 |
| RRIRDRPPRLPRPRPRPLRSPRP | 0.294 |
| RRIRWRPPRLPRPRPRPMLAPRP | 1 |
| RRIRKRPPRLPRPRPRPLGNPRP | 0.094 |
| RRIRTRPPRLPRPRPRPPAPPRP | 0.592 |
| RRIRIRPPRLPRPRPRPQLMPRP | -0.442 |
| RRIRQRPPRLPRPRPRPCSFPRP | -0.0439 |
| RRIRNRPPRLPRPRPRPWKRPRP | -0.0326 |
| RRIRARPPRLPRPRPRPYNQPRP | -0.306 |
| RRIRNRPPRLPRPRPRPWRNPRP | 0.0352 |
| RRIRRRPPRLPRPRPRPLKFPRP | -0.149 |
| RRIRLRPPRLPRPRPRPQLNPRP | -0.214 |
| RRIRARPPRLPRPRPRPSTKPRP | 0.076 |
| RRIRPRPPRLPRPRPRPMWFPRP | -0.113 |
| RRIRLRPPRLPRPRPRPWSEPRP | 0.0878 |
| RRIRYRPPRLPRPRPRPEKVPRP | -0.241 |
| RRIRGRPPRLPRPRPRPYPQPRP | 0.12 |
| RRIRARPPRLPRPRPRPECHPRP | 1.38 |
| RRIRCRPPRLPRPRPRPMPTPRP | 0.592 |
| RRIRTRPPRLPRPRPRPFIYPRP | -0.657 |
| RRIRIRPPRLPRPRPRPFPRPRP | -0.123 |
| RRIRHRPPRLPRPRPRPDPFPRP | -0.409 |
| RRIRTRPPRLPRPRPRPDPVPRP | -0.216 |
| RRIRCRPPRLPRPRPRPAVQPRP | -0.0829 |

| Sequence | shrunken log2 fold change |
| --- | --- |
| RRIRVRPPRLPRPRPRPGMYPRP | -0.241 |
| RRIRQRPPRLPRPRPRPLLGPRP | 0.158 |
| RRIRMRPPRLPRPRPRPCHRPRP | 0.00646 |
| RRIRDRPPRLPRPRPRPGRLPRP | 0.0513 |
| RRIRIRPPRLPRPRPRPHTMPRP | -0.776 |
| RRIRARPPRLPRPRPRPMGSPRP | 0.0355 |
| RRIRCRPPRLPRPRPRPEGMPRP | 0.422 |
| RRIRNRPPRLPRPRPRPNTKPRP | -0.306 |
| RRIRGRPPRLPRPRPRPVNPPRP | 0.127 |
| RRIRWRPPRLPRPRPRPHFWPRP | 0.27 |
| RRIRKRPPRLPRPRPRPPSFPRP | 0.288 |
| RRIRFRPPRLPRPRPRPFHNPRP | -0.622 |
| RRIRTRPPRLPRPRPRPVLIPRP | 0.233 |
| RRIRHRPPRLPRPRPRPMFEPRP | -0.239 |
| RRIRGRPPRLPRPRPRPYLPPRP | -0.204 |
| RRIRDRPPRLPRPRPRPNKNPRP | -0.343 |
| RRIRYRPPRLPRPRPRPSGEPRP | -0.187 |
| RRIRDRPPRLPRPRPRPHIQPRP | -0.53 |
| RRIRNRPPRLPRPRPRPDLYPRP | -0.0459 |
| RRIRFRPPRLPRPRPRPIFYPRP | -0.0962 |
| RRIRMRPPRLPRPRPRPETLPRP | -0.0225 |
| RRIRARPPRLPRPRPRPRMFPRP | 0.345 |
| RRIRSRPPRLPRPRPRPYSDPRP | -0.0368 |
| RRIRIRPPRLPRPRPRPATWPRP | -0.273 |
| RRIRPRPPRLPRPRPRPEFMPRP | 0.0793 |
